The text below walks through data of the supplement of paper PMC10724198.

± gives the standard deviation of the averaged measurements.
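Also: PSI is a weighted mean of sequencing reads over stability bins, variants kept only with over 10 reads, mCherry proximal and sfGFP distal, peptide attached via GGGS linker.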

This data set has as its system Saccharomyces cerevisiae. The data set can be described thus: protein stability index of tFT-peptide fusion (C-terminal peptide) (PSI (0-1 scale)); higher = more stable (slower turnover). The following applies: genetic background: wild type; temperature: 30 C.
Take LGVNYWIYSPHG: the protein stability index amounted to 0.689 ± 0.01.

LGVPKDALKMMS came in with a protein stability index of 0.685 ± 0.0078.

For the sequence LGVPPVLLLASS, the protein stability index amounted to 0.506 ± 0.0077.

For LGWLCWQFFGGT, the protein stability index was 0.795 ± 0.14.

LGWVGGGGGWGC had a protein stability index of 0.704 ± 0.03.

In turn, LGYGERAGVGKR showed a protein stability index of 0.6954 ± 0.0049.

Sequence LHCRFDCTPFPY displayed a protein stability index of 0.67 ± 0.012.

Sequence LHGRTLENIVVR showed a protein stability index of 0.6481 ± 0.0044.

For the sequence LHHGMVDDCIKK, the protein stability index worked out at 0.70112 ± 0.00044.

LHPCATITELTS: the protein stability index is 0.652 ± 0.026.

Turning to LHPPPLPQAPPT, the protein stability index is 0.684 ± 0.09.

The sequence LHRCRPPCSIHL came in with a protein stability index of 0.816 ± 0.036.

On to LHRGCSGNVPAR, for which the protein stability index is 0.697 ± 0.037.

For the sequence LHSPPLPFTPSP, the protein stability index was determined as 0.613 ± 0.041.

The sequence LIAACSFPRSSI showed a protein stability index of 0.716 ± 0.067.

LIFDISDLVWYI had a protein stability index of 0.636 ± 0.031.

In turn, LIGMCEAGCSPF displayed a protein stability index of 0.727 ± 0.012.

Sequence LILHVGWDSQLG yielded a protein stability index of 0.667 ± 0.085.

LISSPKIHLRTY showed a protein stability index of 0.742 ± 0.14.

In turn, LISSVRLACGVS came in with a protein stability index of 0.554 ± 0.061.

For the sequence LIVPGGLSVFGG, the protein stability index was determined as 0.676 ± 0.082.

Turning to LKKEKDHKNRNR, the protein stability index came to 0.67 ± 0.016.

The sequence LKNFGRGAMVRT yielded a protein stability index of 0.688 ± 0.013.

Consider LKSSREKRDMIG, for which the protein stability index amounted to 0.578 ± 0.019.

For the sequence LLAEPASSRFRP, the protein stability index was 0.722 ± 0.029.

For LLAFRVSRYFCD, the protein stability index was 0.87 ± 0.06.

LLALHPLRSWPP: the protein stability index worked out at 0.665 ± 0.016.

Take LLALSPLSSYAL: the protein stability index is 0.711 ± 0.084.

In turn, LLALVLTYLLYG displayed a protein stability index of 0.564 ± 0.03.

Take LLDGGGGGVGEG: the protein stability index was 0.765 ± 0.011.

LLDGRNVPRFRK came in with a protein stability index of 0.792 ± 0.042.

As for LLFFFTWCLCCF, the protein stability index turned out to be 0.569 ± 0.028.

For LLFRSLASMEFP, the protein stability index was 0.6934 ± 0.0062.

With LLGWRFFYLGVG, the protein stability index was 0.688 ± 0.051.

The sequence LLHHPPPPPSQP came in with a protein stability index of 0.769 ± 0.011.

LLHPLPPPSYPP came in with a protein stability index of 0.689 ± 0.01.

LLHRALLFPAVM yielded a protein stability index of 0.734 ± 0.017.

In turn, LLIFFFSSSCPL returned a protein stability index of 0.5359 ± 0.0025.

Sequence LLIYALPQGTHL returned a protein stability index of 0.68 ± 0.048.

In turn, LLKLSVPPSLYV had a protein stability index of 0.5722 ± 0.0011.

For LLLARDLAHPLI, the protein stability index amounted to 0.705 ± 0.015.

Regarding LLLFSILPFCLF, the protein stability index was 0.53 ± 0.073.

Regarding LLLLPPPPPPPT, the protein stability index worked out at 0.684 ± 0.046.

For LLLTVMSSPSLL, the protein stability index was found to be 0.645 ± 0.027.

LLNCVCSYFAWC registered a protein stability index of 0.637 ± 0.014.

In turn, LLNNTLENQNTL displayed a protein stability index of 0.6645 ± 0.0041.

For the sequence LLNTSPPRSVLH, the protein stability index was 0.653 ± 0.01.

Consider LLPFHPPPPCPP, for which the protein stability index was found to be 0.733 ± 0.033.

LLPFIPPPPCPP gave a protein stability index of 0.658 ± 0.02.

With LLPLGSLSLSPP, the protein stability index came to 0.7257 ± 0.0024.

In the case of LLPLPSFSPCSL, the protein stability index amounted to 0.7013 ± 0.0034.

LLPLVLHQAFSP: the protein stability index is 0.729 ± 0.073.

Sequence LLPPPPPASPAI had a protein stability index of 0.696 ± 0.01.

LLPPSPSSRPLF had a protein stability index of 0.723 ± 0.02.

As to LLPPTSRLPRLG, the protein stability index came out at 0.702 ± 0.12.

With LLPSPLPPLLRL, the protein stability index came to 0.6494 ± 0.0018.

Take LLQFYWRPCRGY: the protein stability index came to 0.699 ± 0.013.

Take LLQSPRLGQEWA: the protein stability index came to 0.6928 ± 0.0028.

In turn, LLSCFGFLRVGA yielded a protein stability index of 0.6076 ± 0.0049.

Take LLSHLPLPSSPP: the protein stability index is 0.737 ± 0.096.

LLSPAPRSPRRP had a protein stability index of 0.725 ± 0.019.

Consider LLSPPFPPPAMV, for which the protein stability index was found to be 0.6948 ± 0.0017.

Turning to LLSPPPAPRPPH, the protein stability index is 0.696 ± 0.067.

The sequence LLSSSLPVCLWS returned a protein stability index of 0.733 ± 0.048.

As for LLSVPSLFCQFF, the protein stability index worked out at 0.683 ± 0.057.

As to LLTAFQACPASN, the protein stability index came to 0.713 ± 0.04.

In the case of LLVCVVDREPPI, the protein stability index came to 0.685 ± 0.019.

Turning to LMGFVASGGDDM, the protein stability index worked out at 0.786 ± 0.1.

LNDYGLADLGII returned a protein stability index of 0.731 ± 0.0076.

For LNEGSDRTKNKK, the protein stability index came out at 0.709 ± 0.065.

For LNHTRKDSLLTC, the protein stability index was 0.667 ± 0.014.

As to LNPPPPPDPPPT, the protein stability index came out at 0.585 ± 0.048.

LNSSGPGYGFPG yielded a protein stability index of 0.743 ± 0.05.

In the case of LNWMVMLGHGAC, the protein stability index is 0.5729 ± 0.0014.

LPAFHFHSPPTP gave a protein stability index of 0.688 ± 0.037.

In turn, LPAPARPPLVCS showed a protein stability index of 0.605 ± 0.048.

Consider LPAPPTPRPAPP, for which the protein stability index was determined as 0.706 ± 0.016.

In turn, LPFPSCYLRASL yielded a protein stability index of 0.779 ± 0.033.

LPFSPLSLLAHP showed a protein stability index of 0.782 ± 0.044.

LPGCPPADRPLV displayed a protein stability index of 0.688 ± 0.13.
